These results are taken from patent US20090281035A1.

The assay has as its target CD94-NKG2A-mFc singlechain (human). Briefly: SPR, scCD94/NKG2A chip saturated with humZ270 10 µg/ml, then HLA-E tetramer 8 µg/ml (competitor: HLA-E tetramer).

Sequence of CD94-NKG2A-mFc singlechain (human) (chain, as listed by the source): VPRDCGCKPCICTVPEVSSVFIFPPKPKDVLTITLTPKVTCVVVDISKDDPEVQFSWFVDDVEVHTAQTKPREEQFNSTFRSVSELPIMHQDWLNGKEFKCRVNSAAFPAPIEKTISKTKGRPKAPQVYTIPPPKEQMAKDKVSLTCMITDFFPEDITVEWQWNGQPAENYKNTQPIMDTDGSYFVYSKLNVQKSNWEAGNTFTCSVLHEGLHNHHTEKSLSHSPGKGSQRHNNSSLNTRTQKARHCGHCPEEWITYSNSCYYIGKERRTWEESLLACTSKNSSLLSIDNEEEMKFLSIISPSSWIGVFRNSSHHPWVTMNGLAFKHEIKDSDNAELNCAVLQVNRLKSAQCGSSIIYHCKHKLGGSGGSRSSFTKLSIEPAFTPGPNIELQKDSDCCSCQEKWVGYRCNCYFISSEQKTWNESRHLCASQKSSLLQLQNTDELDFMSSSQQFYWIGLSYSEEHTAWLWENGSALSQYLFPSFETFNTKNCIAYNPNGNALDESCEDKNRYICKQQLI

In turn, humZ270 (antibody) registered a percentage of inhibition of HLA-E tetramer binding of 81.8%.
